Data: patent US20260008856A1 (BLUEFIN BIOMEDICINE, published 2026)

How the values were obtained:
[1] = target: T1, rat IL1RAP (Met1-Val570 plus Myc-DDK) on transfected 293 cells (Rattus norvegicus, UniProt Q63621 21-570); experiment: flow cytometry on 293 cells expressing rat IL1RAP (293-puro-ratIL1RAP) vs 293T-puro [cont.]
T1 construct: whole, on cells; also called RR213032
Method: (§1) Staining for flow cytometry was performed in 1× cold PBS with 0.5% BSA. Primary antibodies (1 ug/ml) were incubated with live cells on ice for 30 minutes, after a brief wash, cells were incubated with Alexa Fluro® 488-conjugated anti-human IgG secondary antibody @1:1000 (709-546-149, Jackson ImmunoResearch). Acquisition of the data was performed on a MACSQuant® Flow Cytometers (Miltenyi Biotec) and analyzed with FlowJo software.

[2] = target: T2, huIL1RAP ECD recombinant protein (human, UniProt Q9NPH3 21-367); experiment: Octet BLI, antibody on Protein A biosensor, recombinant huIL1RAP ECD
T2 construct: also called recombinant human IL1RAP-ECD; recombinant human IL1RAP; not shown: C-terminal histidine tag for purification
Method: Affinity: The affinity of antibodies to various recombinant IL1RAP protein was determined on an Octet Red™ instrument. After loading reagents into a 96-well plate, the Octet Red™ with Protein A-conjugated biosensors was programmed as follows: 30 seconds for baseline #1; 120 seconds to immobilize the antibody; 30 seconds for baseline #2; 300 seconds for association of antibody to recombinant IL1RAP; and 300-600 seconds for dissociation of recombinant IL1RAP from the antibody.

[3] = target: T3, mouse IL1RAP (Met1-Val570 plus Myc-DDK) on transfected 293 cells (Mus musculus, UniProt Q61730 21-570); experiment: flow cytometry on 293 cells expressing mouse IL1RAP (293-puro-mouseIL1RAP) vs 293T-puro [cont.]
T3 construct: whole, on cells; also called MR223729
Method: as §1

[4] = target: T4, human IL1RAP on IL1RAP positive human cell lines (EOL-1, Karpas 299; HEK-Blue reporter cells) (human, UniProt Q9NPH3 21-570); experiment: cell-based or functional assay
[5] = target: T4, human IL1RAP on IL1RAP positive human …; experiment: cell-based or functional assay; remark: listed apart in the source
[6] = target: T4, human IL1RAP on IL1RAP positive human …; experiment: cell-based or functional assay; remark: listed apart in the source

T1 sequence (Q63621 21-570): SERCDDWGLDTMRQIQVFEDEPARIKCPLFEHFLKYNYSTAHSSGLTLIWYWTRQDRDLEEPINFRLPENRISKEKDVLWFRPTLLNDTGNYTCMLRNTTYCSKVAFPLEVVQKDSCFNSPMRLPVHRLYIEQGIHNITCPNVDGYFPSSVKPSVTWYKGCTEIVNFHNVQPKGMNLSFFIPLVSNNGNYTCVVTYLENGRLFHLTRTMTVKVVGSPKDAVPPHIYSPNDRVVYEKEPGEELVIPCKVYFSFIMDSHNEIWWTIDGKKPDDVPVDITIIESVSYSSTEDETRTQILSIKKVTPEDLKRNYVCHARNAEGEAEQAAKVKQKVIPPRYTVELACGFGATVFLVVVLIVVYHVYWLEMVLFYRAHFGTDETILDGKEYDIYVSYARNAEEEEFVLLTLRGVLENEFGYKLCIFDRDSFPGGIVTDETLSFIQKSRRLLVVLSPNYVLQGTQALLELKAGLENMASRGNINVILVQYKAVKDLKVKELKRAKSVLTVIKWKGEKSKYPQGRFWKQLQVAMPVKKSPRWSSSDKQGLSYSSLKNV
T3 sequence (Q61730 21-570): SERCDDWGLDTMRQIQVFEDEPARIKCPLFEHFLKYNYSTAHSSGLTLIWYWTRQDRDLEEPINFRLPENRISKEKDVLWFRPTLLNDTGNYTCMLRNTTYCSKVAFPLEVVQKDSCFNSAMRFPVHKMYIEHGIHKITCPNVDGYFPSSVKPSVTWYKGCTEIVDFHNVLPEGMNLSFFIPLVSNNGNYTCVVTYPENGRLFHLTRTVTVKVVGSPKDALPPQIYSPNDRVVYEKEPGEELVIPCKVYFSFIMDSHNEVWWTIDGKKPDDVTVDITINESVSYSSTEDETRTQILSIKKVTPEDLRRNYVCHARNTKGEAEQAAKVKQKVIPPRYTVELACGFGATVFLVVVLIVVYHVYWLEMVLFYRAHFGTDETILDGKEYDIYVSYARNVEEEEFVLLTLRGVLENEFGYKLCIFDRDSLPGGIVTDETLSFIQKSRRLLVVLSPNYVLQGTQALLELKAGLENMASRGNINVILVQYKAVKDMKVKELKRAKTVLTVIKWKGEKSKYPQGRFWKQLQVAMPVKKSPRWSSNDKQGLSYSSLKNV

Binder | binding result [1] | Kd [2] | binding result [3] | EC50, inhibition of signalling by 0.5 ng/ml IL-1a (IL-1alpha) in the HEK-Blue IL-1 reporter assay (Abs. 620 nm); row printed as 36A10_21C2 [4] | EC50, inhibition of signalling by 0.5 ng/ml IL-1beta in HEK-Blue IL-1beta reporter cells (Abs. 620 nm); row printed as 36A10_21C2 [5] | EC50, inhibition of signalling by 0.5 ng/ml IL-33 in HEK-Blue IL-33 reporter cells (Abs. 620 nM) [6] | EC50, inhibition of signalling by 0.5 ng/ml IL-1a (IL-1alpha) in the HEK-Blue IL-1 reporter assay (Abs. 620 nM) [4] | EC50, inhibition of signalling by 0.5 ng/ml IL-1beta in HEK-Blue IL-1beta reporter cells (Abs. 620 nM) [5]
10C8_15A1 (antibody, V domains shown) VH: QVQLVESGGGVVQPGRSLRISCAASGFTFRSYGMHWVRQAPGKGLEWVAIIWHDESYKYYVDSVKGRFTISRDNSKNTLYLQMNSLRAEDTAVYYCARGDYYGSGSYYDAFDIWGQGTMVTVSS VL: DIQMTQSPSSLSASVGDRVIITCRASQGISNYLAWFQQKPGKCPNLLIYAASTLRSGVPSRFSGSGSGTDFTLTISSLQPEDVATYYCQKYNSAPYTFGQGTKVEIK | no binding (tested: 1 ug/ml) | 30000 pM | no binding (tested: 1 ug/ml) | – | – | – | – | –
5G8_18A1 (antibody, V domains shown) VH: QVELQESGPGLVKPSDTLSLTCTVTGGSISTYYWSWIRQPPGKGLEWIGYIFYTGTTNYNPSLKSRVTISVDASKNQFSLKLNSVTAADTAVYYCARDGSLDYWGQGALVTVSS VL: DIQMTQSPSSLSASVGDRVTITCRASQSISNYLNWYQQKPGKAPKLLIFVASLLQSGVPSRFSGSGSGTDFTLTISSLQPEDFATYYCQQSYSTPFTFGPGTKLEIK | no binding (tested: 1 ug/ml) | 400 pM | no binding (tested: 1 ug/ml) | – | – | – | 830 pM | 580 pM
5D12_18A4 (antibody, V domains shown, Recombinant human antibody) VH: QVQLQESGPGLVKPLGTLSLTCAVSGGSISNSNWWSWVRQPPGKGLEWIGEIYHSGSTNYNPSLKSRVTIALDWSKNQFSLQLRSVTAADTAVYYCARYGSGPFGGDCWGQGTLVTVSS VL: DIQLTQSPSFLSASVGDRVTISCRASQGISSYLAWYQQKPGKAPKLLIYAASTLQGGVPSRFSGSGSGTTFTLTISSLQPEDFATYYCQQLNTYPFTFGPGTKLEIK | no binding (tested: 1 ug/ml) | 19000 pM | – | – | – | – | – | –

Further binders by falling Kd [2], results first:

binding result [1] | Kd [2] | binding result [3] | EC50, inhibition of signalling by 0.5 ng/ml IL-1a (IL-1alpha) in the HEK-Blue IL-1 reporter assay (Abs. 620 nm); row printed as 36A10_21C2 [4] | EC50, inhibition of signalling by 0.5 ng/ml IL-1beta in HEK-Blue IL-1beta reporter cells (Abs. 620 nm); row printed as 36A10_21C2 [5] | EC50, inhibition of signalling by 0.5 ng/ml IL-33 in HEK-Blue IL-33 reporter cells (Abs. 620 nM) [6] | EC50, inhibition of signalling by 0.5 ng/ml IL-1a (IL-1alpha) in the HEK-Blue IL-1 reporter assay (Abs. 620 nM) [4] | EC50, inhibition of signalling by 0.5 ng/ml IL-1beta in HEK-Blue IL-1beta reporter cells (Abs. 620 nM) [5] | Binder
no binding (tested: 1 ug/ml) | 13000 pM | no binding (tested: 1 ug/ml) | – | – | – | – | – | 37D11_21C2 (antibody, V domains shown) VH: QVQIKESGPGLVKPSETLSLTCAVSGFSFSSGYYWGWIRQPPGKGLEWLGSFFHNGNTYYNPSLRSRVTISVDTSKNHFSLKLTSVTAADTAVYYCAGFGDLPHYHYYVMDVWGQGTTVTVSS VL: EIVLTQSPATLSLSPGERATLSCRASQSVSSYLAWYQQKPGQAPRLLIYDASNRAIGIPARFSGSGSGTDFTLTISSLEPEDFAVYYCQQRSNWPPYTFGQGTKLEIK
no binding (tested: 1 ug/ml) | 1600 pM | – | – | – | – | – | – | 39G1_21C4 (antibody, V domains shown) VH: QVQLQESGPGLVKPSETLSLTCAVSGYSASGVYYWGWIRQPPGKGLEWIGNIYHSGSTYYNPSLERRVSISLDTSKNHFSLRLNFVTAADTAVYYCARDRFDAFDIWGQGTMVTVSS VL: EIVMTQSPATLSVSPGERATLSCRASQSINNILAWYQQKPGQAPRLLIYGASTRATGIPARFSGSGSGTEFTLTISSLQSEDFAVYYCQQYNNWPLTFGGGTKVEIK
no binding (tested: 1 ug/ml) | 400 pM | no binding (tested: 1 ug/ml) | 660 pM | 290 pM | 1760 pM | – | – | 36A10_21B6 (antibody, V domains shown) VH: QGQVVESGGGVVQPGRSLRLSCAASGFTFSSYTLHWVRQAPGKGLEWVAVIWYDGSNKYYVDSVKGRFTISRDNSKNTLYLQMNSLRAEDTAVYYCAREYGSGSYYNVYYGMDVWGQGTTVTLSS VL: DIVMTQSPLSLPVTPGEPASISCRSSQSLLHSNGYNYLDWYLQKPGQSPHLLIYLASNRASGVPDRFSGSGSGTDFTLKISRVEAEDVGFYYCMQTLQIPLTFGGGTKVEIK
